{
  "source": "paper PMC1074310",
  "biological_target": "T1, tumor necrosis factor receptor-associated factor 2 (TRAF2) fused to CFP, YFP or mRFP, Q12933",
  "T1 chain": "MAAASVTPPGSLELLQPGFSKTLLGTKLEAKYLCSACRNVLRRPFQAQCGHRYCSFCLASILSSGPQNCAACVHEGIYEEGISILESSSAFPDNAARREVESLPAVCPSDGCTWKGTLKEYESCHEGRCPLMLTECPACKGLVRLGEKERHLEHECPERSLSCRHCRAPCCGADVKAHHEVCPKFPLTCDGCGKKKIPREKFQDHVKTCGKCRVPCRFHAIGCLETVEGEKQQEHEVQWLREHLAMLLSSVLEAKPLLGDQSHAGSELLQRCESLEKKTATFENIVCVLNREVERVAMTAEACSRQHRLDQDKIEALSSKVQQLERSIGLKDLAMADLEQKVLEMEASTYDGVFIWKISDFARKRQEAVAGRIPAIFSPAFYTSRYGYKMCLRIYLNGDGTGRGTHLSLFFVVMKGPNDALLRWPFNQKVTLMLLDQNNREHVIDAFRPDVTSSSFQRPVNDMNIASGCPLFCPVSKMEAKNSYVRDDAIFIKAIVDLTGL",
  "assay": "FRET or BRET",
  "settings": "remark: other sources report otherwise",
  "data": [
    {"binder": "tumor necrosis factor receptor-associated factor 2 (TRAF2) fused to CFP, YFP or mRFP, Q12933 1-501 (natural protein) MAAASVTPPGSLELLQPGFSKTLLGTKLEAKYLCSACRNVLRRPFQAQCGHRYCSFCLASILSSGPQNCAACVHEGIYEEGISILESSSAFPDNAARREVESLPAVCPSDGCTWKGTLKEYESCHEGRCPLMLTECPACKGLVRLGEKERHLEHECPERSLSCRHCRAPCCGADVKAHHEVCPKFPLTCDGCGKKKIPREKFQDHVKTCGKCRVPCRFHAIGCLETVEGEKQQEHEVQWLREHLAMLLSSVLEAKPLLGDQSHAGSELLQRCESLEKKTATFENIVCVLNREVERVAMTAEACSRQHRLDQDKIEALSSKVQQLERSIGLKDLAMADLEQKVLEMEASTYDGVFIWKISDFARKRQEAVAGRIPAIFSPAFYTSRYGYKMCLRIYLNGDGTGRGTHLSLFFVVMKGPNDALLRWPFNQKVTLMLLDQNNREHVIDAFRPDVTSSSFQRPVNDMNIASGCPLFCPVSKMEAKNSYVRDDAIFIKAIVDLTGL", "values": [
      {"measurement": "FRET1 (CFP→YFP) MFI, cells with CFP-TRAF2, YFP-TRAF2 and mRFP", "value": 10.9, "unit": "MFI"},
      {"measurement": "FRET3 (CFP→mRFP) MFI, cells with CFP-TRAF2, YFP and mRFP-TRAF2", "value": 32.7, "unit": "MFI"},
      {"measurement": "stoichiometry N", "value": 3},
      {"measurement": "two-step FRET (CFP→YFP→mRFP) MFI, cells with CFP-TRAF2, YFP-TRAF2 and mRFP-TRAF2", "value": 58.6, "unit": "MFI"}
    ]}
  ]
}
